According to patent publication US20220112288A1 (published 2022):
Changes are numbered by the printed parent chain. One block for each binder: values may come before it.

Target: T1, human CD4 on human PBMCs (human, UniProt P01730 26-458)
T1 construct: whole, on cells; the CD4-positive gate was set with the control antibodies OKT4 and RPA-T4; also called hCD4
Assay: FACS, clonal hybridoma supernatant on human PBMCs

- % CD4 Stain: 27.2%
- gMFI of CD4+: 31800 gMFI
B5: 75110_13P21A (antibody, V domains shown)
VH: QVQLQQWGAGLLKPSETLSLTCAVSGGSFSGYYWSWIRQPPGKGLEWIGEINHSGSTNCNPSLKSRVTISVDTSNNQFSLKLSSVTAADTAVYYCARVLNYFDYWGQGTLVTVSS
VL: DIQMTQSPSSVSASVGDRVTITCRASPDIANWLAWYQQKPGKAPELLIYAASSLQSGVPSRFSGSGSGTDFTLTISSLQPEDFATYFCQQANSFPLTFGGGTKVESK
notes: Tested as clonal hybridoma supernatant from AlivaMab Mouse Kappa mice: human variable regions, human kappa, mouse Fc

- % CD4 Stain: 28.6%
- gMFI of CD4+: 123000 gMFI
B6: 75110_13C13A (antibody, V domains shown)
VH: B5 VH with N75K, V92M, Y101F
VL: B5 VL with S7T, D28G, A30S
notes: as for B5

- % CD4 Stain: 37.5%
- gMFI of CD4+: 185000 gMFI
B8: 75110_13P22A (antibody, V domains shown)
VH: B5 VH with V24A, S25Y, P40S, H53Q, S56N, C59Y, V71A, N75K, Y101W, T109I
VL: DIQMTQSPSSVSASVGDRVTITCRASQGISDWLAWYQQKSGKAPDLLIFAASSLQSGVPSRFSGSGSGTDFTLTISSLQPEDFATYYCQQANSFPYTFGQGTKLEIK
notes: as for B5

- % CD4 Stain: 31.1%
- gMFI of CD4+: 241000 gMFI
B12: 75110_14G10A (antibody, V domains shown)
VH: EVQLVESGGGLVKPGGSLRLSCAASGFTFSSYSMNWVRQAPGKGLEWVSFISSSSSYIYYADSVKGRFTISRDNAKNSLYLQMNSLRAEDTAVYYCARERGDDYGDYEGAFDIWGQGTMVTVSS
VL: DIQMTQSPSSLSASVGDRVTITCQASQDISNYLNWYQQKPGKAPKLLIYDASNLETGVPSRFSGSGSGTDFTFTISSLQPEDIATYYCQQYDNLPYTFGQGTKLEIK
notes: as for B5

More lines, now with the values behind:

B1: 75110_14H13A (antibody, V domains shown)
VH: EVQLVESGGGLVQPGGSLRLSCAASGFTFSNYDMHWVRQATGKGLEWVSTIGTAGDTYYPGSVKGRFTISRKNAKNSLYLQMISLRAGDTAVYYCARGGDYYYGMDVWGQGTTVTVSS
VL: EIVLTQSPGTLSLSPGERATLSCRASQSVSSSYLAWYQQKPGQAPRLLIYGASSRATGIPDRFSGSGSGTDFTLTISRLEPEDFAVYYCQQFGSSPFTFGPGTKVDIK
notes: as for B5
- % CD4 Stain: 35.3%
- gMFI of CD4+: 160000 gMFI

B2: 75110_13C07A (antibody, V domains shown)
VH: B1 VH with G10V, I69L, K72E, I83H, G99A, D100Y, Y101G
VL: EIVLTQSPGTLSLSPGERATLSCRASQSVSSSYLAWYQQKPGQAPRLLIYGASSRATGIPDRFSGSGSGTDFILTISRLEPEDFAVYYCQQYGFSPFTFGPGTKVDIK
notes: as for B5
- % CD4 Stain: 37.5%
- gMFI of CD4+: 56000 gMFI

B3: 75110_10O16A (antibody, V domains shown)
VH: B1 VH with Y32S, K72E, I83N, D100L
VL: ENVLTQSPGTLSLSPGERATLSCRASQSVSSSYLAWYQQKPGQAPRLLIYGASSRATGIPDRFSGSGSGTDFTLTISRLEPEDFAVYYCHQFGSSPFTFGPGTKVDIK
notes: Tested as clonal hybridoma supernatant from AlivaMab Mouse Kappa mice: human variable regions, human kappa, mouse Fc (detected with anti-mouse Fc gamma); also called 75110_10016A
- % CD4 Stain: 37.2%
- gMFI of CD4+: 133000 gMFI

B4: 75110_12K21A (antibody, V domains shown)
VH: B5 VH
VL: B5 VL
notes: as for B5
- % CD4 Stain: 37.2%
- gMFI of CD4+: 147000 gMFI

B7: 75110_11D03A (antibody, V domains shown)
VH: EVQLVESGGGLVQPGGSLRLSCAASGFTFSSYWMSWVRQAPGKGLEWVANINQDGNEKYYVDSVKGRFTISRDNAKNSLFLQMNSLRAEDTAVYYCAREGGQWLALDYWGQGALVTVSS
VL: B8 VL with D31S, S40P, D45K, L46F, F49S, A50G, Y96W, L104V
notes: as for B5
- % CD4 Stain: 30.1%
- gMFI of CD4+: 217000 gMFI

B9: 75110_12H17A (antibody, V domains shown)
VH: B7 VH with S31D, N52K, Q53E
VL: B8 VL with D31S, S40P, D45K, L46F, F49S, A50G, S63T, Y96W, L104V
notes: as for B5
- % CD4 Stain: 37.3%
- gMFI of CD4+: 197000 gMFI

B10: 75110_12H19A (antibody, V domains shown)
VH: B7 VH with K43Q, Q53E, Y60H, F68L, F80Y, A88G, E89V, Y95F
VL: B8 VL with T20S, D31S, S40P, D45K, F49Y, A50G, S53G, Y96W, L104V
notes: as for B5
- % CD4 Stain: 36.8%
- gMFI of CD4+: 284000 gMFI

B11: 75110_12C19A (antibody, V domains shown)
VH: B7 VH with N52K, Q53E, N56S, E57D, F80Y, Y94H, A97V, A113T
VL: B8 VL with A13G, D31S, S40P, D45K, F49Y, A50G, A84V, Y96W, L104V
notes: as for B5
- % CD4 Stain: 24.4%
- gMFI of CD4+: 56500 gMFI
